{
  "source": "patent US6992063",
  "about": "(TRUSTEES OF PRINCETON UNIVERSITY, dated 2006)",
  "binders": {"B1": {"name": "XIAP-BIR3 (residues 238-358) (other, mammalian, UniProt P98170 238-358, looked up)", "chain": "RSESDAVSSDRNFPNSTNLPRNPSMADYEARIFTFGTWIYSVNKEQLARAGFYALGEGDKVKCFHCGGGLTDWKPSEDPWEQHAKWYPGCKYLLEQKGQEYINNIHLTHSLEECLVRTTEK", "notes": "Overexpressed as a GST fusion (pGEX-2T) and purified as in Chai et al. 2000; also called BIR3 domain of XIAP; third BIR domain of XIAP"}},
  "key": {"[1]": {"target": "B1", "assay": "isothermal titration calorimetry"}, "[2]": {"target": "T1, DIAP1-BIR2 (residues 201-325) (Drosophila, UniProt Q24306 201-325)", "T1 construct": "range 201-325; Expressed as a GST fusion; the GST moiety was removed by thrombin cleavage; also called BIR2 domain of DIAP1; DIAP-BIR2", "T1 sequence (looked up)": "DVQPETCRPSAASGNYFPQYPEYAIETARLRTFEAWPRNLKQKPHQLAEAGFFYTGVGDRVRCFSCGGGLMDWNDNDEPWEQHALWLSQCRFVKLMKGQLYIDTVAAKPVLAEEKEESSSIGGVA", "assay": "gel filtration and mass spectroscopic analyses (data not shown)", "description": "(§1) In vitro interaction assay. […] The mixture was fractionated by gel filtration chromatography (Superdex-200, Pharmacia). The protein-containing fractions were analyzed by reverse phase HPLC and mass spectroscopy for detection of the bound peptide.\nRationale and structure determination."}, "[3]": {"target": "T2, DIAP1-BIR1 (residues 1-145) (Drosophila, UniProt Q24306 1-145)", "T2 construct": "range 1-145; Expressed as a GST fusion; the GST moiety was removed by thrombin cleavage; also called BIR1 domain of DIAP1", "T2 sequence (looked up)": "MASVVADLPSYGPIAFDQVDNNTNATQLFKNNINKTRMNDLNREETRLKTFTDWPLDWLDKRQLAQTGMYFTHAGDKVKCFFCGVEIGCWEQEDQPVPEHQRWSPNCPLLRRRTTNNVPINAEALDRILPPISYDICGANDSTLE", "assay": "gel filtration of BIR domain with excess peptide, then reverse phase HPLC and mass spectroscopy", "description": "as §1"}, "[4]": {"target": "T3, XIAP-BIR3 (residues 238-358), P98170", "T3 chain": "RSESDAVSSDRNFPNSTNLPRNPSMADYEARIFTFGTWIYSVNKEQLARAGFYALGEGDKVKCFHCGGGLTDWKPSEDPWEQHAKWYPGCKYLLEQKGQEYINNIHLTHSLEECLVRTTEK"}, "[5]": {"target": "T1, DIAP1-BIR2 (residues 201-325)", "assay": "isothermal titration calorimetry, 23 °C", "description": "Isothermal microcalorimetry titration. All proteins and peptides was prepared in 50 mM sodium phosphate buffer, pH 7.5. The Micro Calorimetry System (Microcal, Amherst, Mass.) was used to perform the ITC measurements for the interaction between DIAP1-BIR2 and various synthetic peptides. The titration data, collected at 23° C., were analyzed using the ORIGIN data analysis software (Microcal Software, Northampton, Mass.)."}, "[6]": {"target": "T4, Smac (Phe33Asp, residues 1-162), monomeric mutant (human, UniProt Q9NR28 56-217, A selenomethionyl form (Met replaced by Se-Met) was used only for phasing. The native crystals hold the plain protein.)", "T4 construct": "Residues 1-162 and position 33 count on mature Smac, not on the precursor entry; Expressed in E. coli from pET-3d for crystallisation; a selenomethionyl form was used for phasing; also called mutant Smac protein; monomeric Smac protein", "T4 sequence": "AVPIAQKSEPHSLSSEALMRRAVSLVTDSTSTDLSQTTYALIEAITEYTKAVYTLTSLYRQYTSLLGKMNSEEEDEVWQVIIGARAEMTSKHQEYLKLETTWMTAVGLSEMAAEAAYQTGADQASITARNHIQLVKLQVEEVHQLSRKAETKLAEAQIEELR", "assay": "reconstituted binary complex, in solution and co-crystallised"}},
  "data": [
    {"binder": "AIAYFIPDQA", "note": "[10-residue Grim peptide (N-terminal peptide of Grim)]", "values": [
      {"measurement": "binding result", "setting": "[1]", "value": "binds"},
      {"measurement": "binding result", "setting": "[2]", "value": "binds"},
      {"measurement": "binding result", "setting": "[3]", "value": "no binding"}
    ]},
    {"binder": "caspase-9 (protein) MDEADRRLLRRCRLRLVEELQVDQLWDALLSRELFRPHMIEDIQRAGSGSRRDQARQLIIDLETRGSQALPLFISCLEDTGQDMLASFLRTNRQAAKLSKPTLENLTPVVLRPEIRKPEVLRPETPRPVDIGSGGFGDVGALESLRGNADLAYILSMEPCGHCLIINNVNFCRESGLRTRTGSNIDCEKLRRRFSSLHFMVEVKGDLTAKKMVLALLELAQQDHGALDCCVVVILSHGCQASHLQFPGAVYGTDGCPVSVEKIVNIFNGTSCPSLGGKPKLFFIQACGGEQKDHGFEVASTSPEDESPGSNPEPDATPFQEGLRTFDQLDAISSLPTPSDIFVSYSTFPGFVSWRDPKSGSWYVETLDDIFEQWAHSEDLQSLLLRVANAVSVKGIYKQMPGCFNFLRKKLFFKTS", "values": [
      {"measurement": "caspase-9 activity (cleavage of Ac-LEHD-AFC), direct assay", "setting": "[4]", "value": "the inhibition of caspase-9 by the BIR3 domain of XIAP"}
    ]},
    {"binder": "AVPFYLPEGG", "note": "[10-residue Hid peptide (N-terminal peptide of Hid)]", "values": [
      {"measurement": "fold difference in binding affinity between the Hid and Grim peptides", "setting": "[1]", "value": "~100", "unit": "fold"},
      {"measurement": "fold higher binding affinity than the Grim peptide", "setting": "[5]", "value": 6, "unit": "fold"},
      {"measurement": "binding result", "setting": "[3]", "value": "no binding"}
    ]},
    {"binder": "B1", "values": [
      {"measurement": "binding result", "setting": "[6]", "value": "binds"}
    ]}
  ]
}
